According to article PMC11531485, “Examining prestructured β-actin peptides as substrates of histidine methyltransferase SETD3” (Scientific Reports, 2024):
Positions of bridges follow the written chain, without caps; N, C: chain ends. No end group written: not given here.

How the values were obtained:
[1] = molecular target: T1, human SETD3 histidine methyltransferase (human, UniProt Q86TU7 1-594); experiment: cell-based or functional assay
T1 sequence (looked up): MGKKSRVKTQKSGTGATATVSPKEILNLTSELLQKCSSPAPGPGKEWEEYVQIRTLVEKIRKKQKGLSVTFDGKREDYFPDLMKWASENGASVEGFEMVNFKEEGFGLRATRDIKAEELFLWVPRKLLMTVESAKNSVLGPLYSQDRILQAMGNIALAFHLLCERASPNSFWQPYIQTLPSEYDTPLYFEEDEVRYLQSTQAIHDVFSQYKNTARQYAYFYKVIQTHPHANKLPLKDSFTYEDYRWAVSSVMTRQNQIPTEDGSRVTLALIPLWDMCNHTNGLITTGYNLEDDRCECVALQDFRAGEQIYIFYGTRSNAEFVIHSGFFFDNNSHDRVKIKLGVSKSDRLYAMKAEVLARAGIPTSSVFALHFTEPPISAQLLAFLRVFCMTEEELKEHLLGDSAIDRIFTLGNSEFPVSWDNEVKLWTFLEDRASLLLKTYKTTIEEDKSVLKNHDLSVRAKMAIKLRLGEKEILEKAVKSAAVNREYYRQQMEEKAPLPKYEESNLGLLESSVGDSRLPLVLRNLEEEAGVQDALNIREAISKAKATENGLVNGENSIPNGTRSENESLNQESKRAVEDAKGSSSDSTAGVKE

[2] = molecular target: T1, human SETD3 histidine methyltransferase; experiment: ITC; βA peptides (700-850 µM) titrated into SETD3 (30 µM) preincubated with SAH (350 µM) for 1 h; 20 mM Tris, 200 mM NaCl, pH 8.0; MicroCal PEAQ-ITC; One Set of Sites model; details: both partners purified
[3] = molecular target: T1, human SETD3 histidine methyltransferase; experiment: cell-based or functional assay; remark: listed apart in the source

Row | Binder | kcat of SETD3-catalysed methylation, MALDI-TOF MS steady-state kinetics (200 nM SETD3, 100 µM SAM, pH 9.0, 37 °C) [1] [min^-1] | kcat/Km of SETD3-catalysed methylation, MALDI-TOF MS steady-state kinetics (200 nM SETD3, 100 µM SAM, pH 9.0, 37 °C) [1] [µM^-1min^-1] | Kd [2] [µM] | IC50 of inhibition of SETD3-catalysed methylation of the βA-H73 peptide, MALDI-TOF MS single point assay (10 and 100 µM peptide, 360 nM SETD3, 100 µM SAM) [3] [µM]
1 | TLKYPIEHGIVTNWDD-NH2 [linear β-actin peptide (βA-H73, natural sequence)] | 148 | 5.78 | 2.46 | –
2 | TLKYPIEHGKVTNWDD-NH2 (lactam 7-10) [stapled βA peptide 9 (cyclic lactam, Glu72-Lys75)] | – | – | 24 | > 100
